In US20220406376A1 (MacroGenics, published 2022):

Legend:
[1] = biological target: T1, HER2/neu on the surface of target cells (N87, JIMT-1, MCF-7, MDA-MB231) (UniProt P04626 23-1255, limits assumed); assay: flow cytometry on N87 gastric cancer cells, anti-hFc APC MFI
T1 construct: whole, on cells

[2] = biological target: T2, CD137 on the surface of cells (activated human T cells; engineered CHO cells) (human, UniProt Q07011 24-255); assay: flow cytometry on activated pan T cells gated CD8, anti-hFc APC MFI
T2 construct: whole, on cells; also called human CD137; cell surface expressed CD137
T2 sequence (Q07011 24-255, change not shown): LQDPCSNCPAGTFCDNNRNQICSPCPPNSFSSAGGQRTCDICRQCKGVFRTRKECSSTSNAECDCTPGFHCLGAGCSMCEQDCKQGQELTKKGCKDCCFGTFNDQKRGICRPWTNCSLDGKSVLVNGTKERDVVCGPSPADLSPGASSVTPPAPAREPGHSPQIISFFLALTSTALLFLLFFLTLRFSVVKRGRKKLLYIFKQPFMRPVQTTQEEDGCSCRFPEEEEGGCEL

| Binder | EC50 (read off the curve) [1] | EC50 (read off the curve) [2] |
| --- | --- | --- |
| DART-F (bispecific antibody, human IgG1, kappa, L234A L235A) heavy: QVQLVQSGAEVKKPGASVKVSCKASGYTFTNYGMNWVRQAPGQGLEWMGWINTNIGEPTYTEEFKGRVTMTRDTSISTAYMELSRLRSDDTAVYYCARDDGYGNRVSYWGQGTLVTVSSASTKGPSVFPLAPSSKSTSGGTAALGCLVKDYFPEPVTVSWNSGALTSGVHTFPAVLQSSGLYSLSSVVTVPSSSLGTQTYICNVNHKPSNTKVDKRVEPKSCDKTHTCPPCPAPEAAGGPSVFLFPPKPKDTLMISRTPEVTCVVVDVSHEDPEVKFNWYVDGVEVHNAKTKPREEQYNSTYRVVSVLTVLHQDWLNGKEYKCKVSNKALPAPIEKTISKAKGQPREPQVYTLPPSREEMTKNQVSLSCAVKGFYPSDIAVEWESNGQPENNYKTTPPVLDSDGSFFLVSKLTVDKSRWQQGNVFSCSVMHEALHNRYTQKSLSLSPGK light: DIQMTQSPSSLSASVGDRVTITCKASQDISNYLSWFQQKPGKAPKTLIYRANRLQSGVPSRFSGSGSGTDFTLTISSLQPEDFATYYCLQHDEFPWTFGQGTKLEIKRTVAAPSVFIFPPSDEQLKSGTASVVCLLNNFYPREAKVQWKVDNALQSGNSQESVTEQDSKDSTYSLSSTLTLSKADYEKHKVYACEVTHQGLSSPVTKSFNRGEC chain 1: QVQLVQSGAEVKKPGASVKVSCKASGYTFTNYGMNWVRQAPGQGLEWMGWINTNIGEPTYTEEFKGRVTMTRDTSISTAYMELSRLRSDDTAVYYCARDDGYGNRVSYWGQGTLVTVSSASTKGPSVFPLAPSSKSTSGGTAALGCLVKDYFPEPVTVSWNSGALTSGVHTFPAVLQSSGLYSLSSVVTVPSSSLGTQTYICNVNHKPSNTKVDKRVEPKSCDKTHTCPPCPAPEAAGGPSVFLFPPKPKDTLMISRTPEVTCVVVDVSHEDPEVKFNWYVDGVEVHNAKTKPREEQYNSTYRVVSVLTVLHQDWLNGKEYKCKVSNKALPAPIEKTISKAKGQPREPQVYTLPPSREEMTKNQVSLWCLVKGFYPSDIAVEWESNGQPENNYKTTPPVLDSDGSFFLYSKLTVDKSRWQQGNVFSCSVMHEALHNHYTQKSLSLSPGGGGSGGGSGGGDIQMTQTTSSLSASLGDRVTISCRASQDISNYLNWYQQKPDGTVKLLIYYTSRLHSGVPSRFSGSGSGTDYSLTISNLEQEDIATYFCQQGNTLPYTFGGGTKLEIKGGGSGGGGQVQLQQPGAELVRPGASVKLSCKASGYTFTSYWINWVKQRPGQGLEWIGNIYPSDSYTNYDQKFKDKATLTVDKSSSTAYMQLSSPTSEDSAVYYCTKSGEYGKIGYYAMDYWGQGTSVTVSSGGCGGGEVAALEKEVAALEKEVAALEKEVAALEK chain 2: DIQMTQTTSSLSASLGDRVTISCRASQDISNYLNWYQQKPDGTVKLLIYYTSRLHSGVPSRFSGSGSGTDYSLTISNLEQEDIATYFCQQGNTLPYTFGGGTKLEIKGGGSGGGGQVQLQQPGAELVRPGASVKLSCKASGYTFTSYWINWVKQRPGQGLEWIGNIYPSDSYTNYDQKFKDKATLTVDKSSSTAYMQLSSPTSEDSAVYYCTKSGEYGKIGYYAMDYWGQGTSVTVSSGGCGGGKVAALKEKVAALKEKVAALKEKVAALKE | ~0.5 nM | ~0.5 nM |
| DART-4 (bispecific antibody, human IgG1, kappa, L234A L235A) heavy: QVQLVQSGAEVKKPGASVKVSCKASGYTFTNYGMNWVRQAPGQGLEWMGWINTNIGEPTYTEEFKGRVTMTRDTSISTAYMELSRLRSDDTAVYYCARDDGYGNRVSYWGQGTLVTVSSASTKGPSVFPLAPSSKSTSGGTAALGCLVKDYFPEPVTVSWNSGALTSGVHTFPAVLQSSGLYSLSSVVTVPSSSLGTQTYICNVNHKPSNTKVDKRVEPKSCDKTHTCPPCPAPEAAGGPSVFLFPPKPKDTLMISRTPEVTCVVVDVSHEDPEVKFNWYVDGVEVHNAKTKPREEQYNSTYRVVSVLTVLHQDWLNGKEYKCKVSNKALPAPIEKTISKAKGQPREPQVYTLPPSREEMTKNQVSLSCAVKGFYPSDIAVEWESNGQPENNYKTTPPVLDSDGSFFLVSKLTVDKSRWQQGNVFSCSVMHEALHNRYTQKSLSLSPGK light: DIQMTQSPSSLSASVGDRVTITCKASQDISNYLSWFQQKPGKAPKTLIYRANRLQSGVPSRFSGSGSGTDFTLTISSLQPEDFATYYCLQHDEFPWTFGQGTKLEIKRTVAAPSVFIFPPSDEQLKSGTASVVCLLNNFYPREAKVQWKVDNALQSGNSQESVTEQDSKDSTYSLSSTLTLSKADYEKHKVYACEVTHQGLSSPVTKSFNRGEC chain 1: QVQLVQSGAEVKKPGASVKVSCKASGYTFTNYGMNWVRQAPGQGLEWMGWINTNIGEPTYTEEFKGRVTMTRDTSISTAYMELSRLRSDDTAVYYCARDDGYGNRVSYWGQGTLVTVSSASTKGPSVFPLAPSSKSTSGGTAALGCLVKDYFPEPVTVSWNSGALTSGVHTFPAVLQSSGLYSLSSVVTVPSSSLGTQTYICNVNHKPSNTKVDKRVEPKSCDKTHTCPPCPAPEAAGGPSVFLFPPKPKDTLMISRTPEVTCVVVDVSHEDPEVKFNWYVDGVEVHNAKTKPREEQYNSTYRVVSVLTVLHQDWLNGKEYKCKVSNKALPAPIEKTISKAKGQPREPQVYTLPPSREEMTKNQVSLWCLVKGFYPSDIAVEWESNGQPENNYKTTPPVLDSDGSFFLYSKLTVDKSRWQQGNVFSCSVMHEALHNHYTQKSLSLSPGGGGSGGGSGGGEIVLTQSPATLSLSPGERATLSCRASQSVSSYLAWYQQKPGQAPRLLIYDASNRATGIPARFSGSGSGTDFTLTISSLEPEDFAVYYCQQRSNWPPALTFGGGTKVEIKGGGSGGGGQVQLQQWGAGLLKPSETLSLTCAVYGGSFSGYYWSWIRQSPEKGLEWIGEINHGGYVTYNPSLESRVTISVDTSKNQFSLKLSSVTAADTAVYYCARDYGPGNYDWYFDLWGRGTLVTVSSGGCGGGEVAALEKEVAALEKEVAALEKEVAALEK chain 2: EIVLTQSPATLSLSPGERATLSCRASQSVSSYLAWYQQKPGQAPRLLIYDASNRATGIPARFSGSGSGTDFTLTISSLEPEDFAVYYCQQRSNWPPALTFGGGTKVEIKGGGSGGGGQVQLQQWGAGLLKPSETLSLTCAVYGGSFSGYYWSWIRQSPEKGLEWIGEINHGGYVTYNPSLESRVTISVDTSKNQFSLKLSSVTAADTAVYYCARDYGPGNYDWYFDLWGRGTLVTVSSGGCGGGKVAALKEKVAALKEKVAALKEKVAALKE | – | ~0.3 nM |
| DART-5 (bispecific antibody, human IgG1, kappa, L234A L235A) heavy: QVQLVQSGAEVKKPGASVKVSCKASGYTFTNYGMNWVRQAPGQGLEWMGWINTNIGEPTYTEEFKGRVTMTRDTSISTAYMELSRLRSDDTAVYYCARDDGYGNRVSYWGQGTLVTVSSASTKGPSVFPLAPSSKSTSGGTAALGCLVKDYFPEPVTVSWNSGALTSGVHTFPAVLQSSGLYSLSSVVTVPSSSLGTQTYICNVNHKPSNTKVDKRVEPKSCDKTHTCPPCPAPEAAGGPSVFLFPPKPKDTLMISRTPEVTCVVVDVSHEDPEVKFNWYVDGVEVHNAKTKPREEQYNSTYRVVSVLTVLHQDWLNGKEYKCKVSNKALPAPIEKTISKAKGQPREPQVYTLPPSREEMTKNQVSLSCAVKGFYPSDIAVEWESNGQPENNYKTTPPVLDSDGSFFLVSKLTVDKSRWQQGNVFSCSVMHEALHNRYTQKSLSLSPGK light: DIQMTQSPSSLSASVGDRVTITCKASQDISNYLSWFQQKPGKAPKTLIYRANRLQSGVPSRFSGSGSGTDFTLTISSLQPEDFATYYCLQHDEFPWTFGQGTKLEIKRTVAAPSVFIFPPSDEQLKSGTASVVCLLNNFYPREAKVQWKVDNALQSGNSQESVTEQDSKDSTYSLSSTLTLSKADYEKHKVYACEVTHQGLSSPVTKSFNRGEC chain 1: QVQLVQSGAEVKKPGASVKVSCKASGYTFTNYGMNWVRQAPGQGLEWMGWINTNIGEPTYTEEFKGRVTMTRDTSISTAYMELSRLRSDDTAVYYCARDDGYGNRVSYWGQGTLVTVSSASTKGPSVFPLAPSSKSTSGGTAALGCLVKDYFPEPVTVSWNSGALTSGVHTFPAVLQSSGLYSLSSVVTVPSSSLGTQTYICNVNHKPSNTKVDKRVEPKSCDKTHTCPPCPAPEAAGGPSVFLFPPKPKDTLMISRTPEVTCVVVDVSHEDPEVKFNWYVDGVEVHNAKTKPREEQYNSTYRVVSVLTVLHQDWLNGKEYKCKVSNKALPAPIEKTISKAKGQPREPQVYTLPPSREEMTKNQVSLWCLVKGFYPSDIAVEWESNGQPENNYKTTPPVLDSDGSFFLYSKLTVDKSRWQQGNVFSCSVMHEALHNHYTQKSLSLSPGGGGSGGGSGGGSYELTQPPSVSVSPGQTASITCSGDNIGDQYAHWYQQKPGQSPVLVIYQDKNRPSGIPERFSGSNSGNTATLTISGTQAMDEADYYCATYTGFGSLAVFGGGTKLTVLGGGSGGGGEVQLVQSGAEVKKPGESLRISCKGSGYSFSTYWISWVRQMPGKGLEWMGKIYPGDSYTNYSPSFQGQVTISADKSISTAYLQWSSLKASDTAMYYCARGYGIFDYWGQGTLVTVSSGGCGGGEVAALEKEVAALEKEVAALEKEVAALEK chain 2: SYELTQPPSVSVSPGQTASITCSGDNIGDQYAHWYQQKPGQSPVLVIYQDKNRPSGIPERFSGSNSGNTATLTISGTQAMDEADYYCATYTGFGSLAVFGGGTKLTVLGGGSGGGGEVQLVQSGAEVKKPGESLRISCKGSGYSFSTYWISWVRQMPGKGLEWMGKIYPGDSYTNYSPSFQGQVTISADKSISTAYLQWSSLKASDTAMYYCARGYGIFDYWGQGTLVTVSSGGCGGGKVAALKEKVAALKEKVAALKEKVAALKE | ~0.5 nM | – |
| DART-2 (bispecific antibody) chain 1: not shown chain 2: SYELTQPPSVSVSPGQTASITCSGDNIGDQYAHWYQQKPGQSPVLVIYQDKNRPSGIPERFSGSNSGNTATLTISGTQAMDEADYYCATYTGFGSLAVFGGGTKLTVLGGGSGGGGQVQLVQSGAEVKKPGASVKVSCKASGYTFTNYGMNWVRQAPGQGLEWMGWINTNIGEPTYTEEFKGRVTMTRDTSISTAYMELSRLRSDDTAVYYCARDDGYGNRVSYWGQGTLVTVSSGGCGGGKVAACKEKVAALKEKVAALKEKVAALKE | ~0.4 nM | – |
| DART-1 (bispecific antibody) chain 1: not shown chain 2: EIVLTQSPATLSLSPGERATLSCRASQSVSSYLAWYQQKPGQAPRLLIYDASNRATGIPARFSGSGSGTDFTLTISSLEPEDFAVYYCQQRSNWPPALTFGGGTKVEIKGGGSGGGGQVQLVQSGAEVKKPGASVKVSCKASGYTFTNYGMNWVRQAPGQGLEWMGWINTNIGEPTYTEEFKGRVTMTRDTSISTAYMELSRLRSDDTAVYYCARDDGYGNRVSYWGQGTLVTVSSGGCGGGKVAACKEKVAALKEKVAALKEKVAALKE | ~0.4 nM | ~0.1 nM |
